Results on 29 molecules are retold here after patent US20120177664A1 (IMMUNAS PHARMA, published 2012).

Where a chain is given by its changes, count along the chain named.

B1: IR-028 antibody (antibody, V domains shown)
VH: DVQLVESGGGLVQPGGSRKLSCAASGFTFSSFGMHWVRQAPEKGLEWVAYISSGSSTIYYADTVKGRFTISRDNPKNTLFLQMTSLRSEDTAMYYCARTGTGAMDYWGQGTSVTVSS
VL: DVVMTQTPLSLPVSLGDQASISCRSSQSLVHSNGNTYLHWYLQKPGQSPKLLIYKVSNRFSGVPDRFSGSGSGTDFTLKISRVEAEDLGVYFCSQSTHVPPTFGGGTKLEIK
notes: mouse IgG2b
B2: IR-039 antibody (antibody, mouse IgG2b, V domains shown)
VH: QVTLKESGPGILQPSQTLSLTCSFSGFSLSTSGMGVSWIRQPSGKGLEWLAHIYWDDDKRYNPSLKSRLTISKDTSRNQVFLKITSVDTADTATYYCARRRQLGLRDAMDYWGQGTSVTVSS
VL: B1 VL with V3L, L29I, H39E, F92Y, S94F, S96G, T97S, P101L, G105A, I111L
notes: mouse IgG2b
B3: IR-128 antibody (antibody, V domains shown)
VH: DVQLVESGGGLVQPGGSRKLSCAASGFTFSSFGMHWVRQAPEKGLEWVAYISSGSSTIYYADTVKGRFTISRDNPKNTLFLQMTSLRSEDTAMYYCAREGHFDYWGQGTTLTVSS
VL: B1 VL
notes: mouse IgG2a
B4: IR-098 antibody (antibody, mouse IgG2b, V domains shown)
VH: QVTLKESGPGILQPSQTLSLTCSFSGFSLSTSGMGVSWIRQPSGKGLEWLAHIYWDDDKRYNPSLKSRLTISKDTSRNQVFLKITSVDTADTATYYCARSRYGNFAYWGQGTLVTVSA
VL: B1 VL with V3L, L29I, H39E, F92Y, S94F, S96G, T97S, P101L, G105A, I111L
notes: mouse IgG2b
B5: IR-037 antibody (antibody, mouse IgG1, V domains shown)
VH: B3 VH with E99D, H101T, F102M, T110S, L111V
VL: B1 VL with V2A, V30E, H31N, H39N, K50Q, K55R, P64L, S94L, S96V
notes: mouse IgG1
B6: IR-036 antibody (antibody, mouse IgG2b, V domains shown)
VH: QVTLKESGPGILQPSQTLSLTCSFSGFSLSTSGMGVSWIRQPSGKGLEWLAHIYWDDDKRYNPSLKSRLTISKDTSRNQVFLKITSVDTADTATYYCARRANYYGYGMDAMDYWGQGTSVTVSS
VL: B1 VL with V3L, L29I, H39E, F92Y, S94F, S96G, T97S, P101L, G105A, I111L
notes: mouse IgG2b
B7: IR-107 antibody (antibody, mouse IgG2b, V domains shown)
VH: DVQLVESGGGLVQPGGSRKLSCAASGFTFSSFGMHWVRQAPEKGLEWVAYISSGSSTIYYADTVKGRFTISRDNPKNTLFLQMTSLRSEDTAMYYCARYGYAMDYWGQGTSVTVSS
VL: B1 VL with V3L, L29I, H39E, F92Y, S94F, S96G, T97S
notes: mouse IgG2b
B8: IR-108 antibody (antibody, mouse IgG2a, V domains shown)
VH: QVTLKESGPGILKPSQTLSLTCSFSGFSLSTSGMGVGWIRQPSGKGLEWLAHIWWDDDKYYNPSLKSQLTISKDTSRNQVFLKITSVDTADTATYYCARRGLRRGDYFDYWGQGTTLTVSS
VL: B1 VL with V3L, L29I, H39E, F92Y, S94F, S96G, T97S, P101L, G105A, I111L
notes: mouse IgG2a
B9: IR-057 antibody (antibody, mouse IgG1, V domains shown)
VH: B1 VH with T99Y, T101N, G102Y
VL: B1 VL with V3L, L29I, H39E, F92Y, S94F, S96G, T97S
notes: mouse IgG1
B10: IR-121 antibody (antibody, mouse IgG2b, V domains shown)
VH: B1 VH with R98T, T99Y, T101I, G102Y
VL: B1 VL with V3L, L29I, H39E, F92Y, S94F, S96G, T97S
notes: mouse IgG2b
B11: IR-077 antibody (antibody, mouse IgG2a, V domains shown)
VH: DVQLVESGGGLVQPGGSRKLSCAASGFTFSSFGMHWVRQAPEKGLEWVAYISSGSSTIYYADTVKGRFTISRDNPKNTLFLQMTSLRSEDTAMYYCARSGYRYSYYAMDYWGQGTSVTVSS
VL: B1 VL with V3L, L29I, H39E, F92Y, S94F, S96G, T97S, P101L, G105A, I111L
notes: mouse IgG2a
B12: IR-067 antibody (antibody, mouse IgG2b, V domains shown)
VH: DVQLVESGGGLVQPGGSRKLSCAASGFTFSSFGMHWVRQAPEKGLEWVAYISSGSSTIYYADTVKGRFTISRDNPKNTLFLQMTSLRSEDTAMYYCARSGGNYLMDYWGQGTSVTVSS
VL: B1 VL with V3L, L29I, H39E, F92Y, S94F, S96G, T97S, P101L, G105A, I111L
notes: mouse IgG2b
B13: IR-097 antibody (antibody, mouse IgG2b, V domains shown)
VH: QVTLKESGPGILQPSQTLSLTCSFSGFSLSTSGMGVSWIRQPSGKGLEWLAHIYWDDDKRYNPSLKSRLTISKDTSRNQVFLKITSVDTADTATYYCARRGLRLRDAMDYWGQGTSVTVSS
VL: B1 VL with V3L, L29I, H39E, F92Y, S94F, S96G, T97S, P101L, G105A, I111L
notes: mouse IgG2b
B14: IR-062 antibody (antibody, mouse IgG2b, V domains shown)
VH: B1 VH with T99Y, G100Y, T101H, G102Y
VL: B1 VL with V3L, L29I, H39E, F92Y, S94F, S96G, T97S
notes: mouse IgG2b
B15: IR-063 antibody (antibody, mouse IgG2b, V domains shown)
VH: B3 VH with H101D
VL: B1 VL with P101L, G105A, I111L
notes: mouse IgG2b
B16: IR-125 antibody (antibody, mouse IgG2b, V domains shown)
VH: B11 VH with S99A, Y101G, R102Y, Y103S, S104L, Y105S
VL: B1 VL with V3L, L29I, H39E, F92Y, S94F, S96G, T97S
notes: mouse IgG2b
B17: IR-110 antibody (antibody, mouse IgG2b, V domains shown)
VH: B7 VH with R98S, Y101N, A102Y, M103G, D104A, S111L, S116A
VL: B1 VL with V3L, L29I, H39E, F92Y, S94F, S96G, T97S
notes: mouse IgG2b
B18: IR-095 antibody (antibody, mouse IgG2b, V domains shown)
VH: B6 VH with N102P, Y103R, Y104L, G105Y, M108Y
VL: B1 VL with V3L, L29I, H39E, F92Y, S94F, S96G, T97S, P101L, G105A, I111L
notes: mouse IgG2b
B19: IR-152 antibody (antibody, mouse IgG2b, V domains shown)
VH: B12 VH with S99G, G101H, N102V, Y103G, L104A
VL: B1 VL with P101W
notes: mouse IgG2b
B20: IR-083 antibody (antibody, mouse IgG2b, V domains shown)
VH: B12 VH with S31R, H35Y, T63I, S99R, G101Y, N102Y, Y103E, L104A
VL: B1 VL with V3L, L29I, H39E, E86D, F92Y, S94F, S96G, T97S
notes: mouse IgG2b
B21: IR-146 antibody (antibody, mouse IgG2a, V domains shown)
VH: B1 VH with T99G
VL: B1 VL with V3L, L29I, H39E, F92Y, S94F, S96G, T97S
notes: mouse IgG2a
B22: IR-127 antibody (antibody, mouse IgG2a, V domains shown)
VH: B11 VH with S99K, Y101T, R102Y, S104R, Y106D, M108F, S116T, V117L
VL: B1 VL with V3L, L29I, H39E, F92Y, S94F, S96G, T97S
notes: mouse IgG2a
B23: IR-124 antibody (antibody, mouse IgG2a, V domains shown)
VH: B1 VH with R98I, T99Y, G100Y, T101Y, A103S, M104S, D105Y, S112T, V113L
VL: B1 VL with V3L, L29I, H39E, F92Y, S94F, S96G, T97S, G105A, I111L
notes: mouse IgG2a
B24: IR-041 antibody (antibody, mouse IgG2a, V domains shown)
VH: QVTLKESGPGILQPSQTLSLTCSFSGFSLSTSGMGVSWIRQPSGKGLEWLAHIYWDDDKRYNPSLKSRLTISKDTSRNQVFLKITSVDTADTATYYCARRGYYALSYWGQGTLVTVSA
VL: B1 VL with V3L, L29I, H39E, F92Y, S94F, S96G, T97S, P101L, G105A, I111L
notes: mouse IgG2a
B25: IR-081 antibody (antibody, mouse IgG2b, V domains shown)
VH: B12 VH with S99R, G100W, N102E, Y103G, L104A
VL: B1 VL with V3L, L29I, H39E, F92Y, S94F, S96G, T97S
notes: mouse IgG2b
B26: IR-079 antibody (antibody, mouse IgG2b, V domains shown)
VH: DVQLVESGGGLVQPGGSRKLSCAASGFTFSSFGMHWVRQAPEKGLEWVAYISSGSSTIYYADTVKGRFTISRDNPKNTLFLQMTSLRSEDTAMYYCARYGTLYYYAMDYWGQGTSVTVSS
VL: B1 VL with V3L, L29I, H39E, F92Y, S94F, S96G, T97S
notes: mouse IgG2b
B27: IR-038 antibody (antibody, mouse IgG2b, V domains shown)
VH: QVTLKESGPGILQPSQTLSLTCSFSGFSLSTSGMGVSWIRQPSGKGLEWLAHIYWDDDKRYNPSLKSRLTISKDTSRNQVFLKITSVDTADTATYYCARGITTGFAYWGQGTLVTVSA
VL: B1 VL with V3L, L29I, H39E, F92Y, S94F, S96G, T97S, P101L, G105A, I111L
notes: mouse IgG2b
B28: IR-060 antibody (antibody, mouse IgG2a, V domains shown)
VH: B11 VH with S99G, Y101N, R102Y, Y103L, S104R
VL: B1 VL with V3L, L29I, H39E, F92Y, S94F, S96G, T97S, P101L, G105A, I111L
notes: mouse IgG2a
B29: IR-094 antibody (antibody, mouse IgG2b, V domains shown)
VH: EVKLEESGGGLVQPGGSMKLSCVASGFTFSNYWMNWVRQSPEKGLEWVAEIRLKSNNYATHYAESVKGRFTISRDDSKSSVYLQMNNLRAEDTGIYYCTRRGPSGYDRAWFAYWGQGTLVTVSA
VL: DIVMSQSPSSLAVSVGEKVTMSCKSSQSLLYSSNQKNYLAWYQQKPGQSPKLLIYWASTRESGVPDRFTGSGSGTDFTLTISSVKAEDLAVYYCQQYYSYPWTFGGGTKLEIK
notes: mouse IgG2b

The assay has as its target T1, A beta oligomer (synthetic A beta1-40, HCl form, 0.1 mg/ml in PBS, incubated at 37 degrees C for one hour) (UniProt P05067 672-711).
T1 construct: domain: A beta1-40; non-fibrous multimer of the peptide; also called A beta 1-40 oligomer
In words: SPR (Biacore 3000). The protocol:
The analysis was carried out by Surface Plasmon Resonance (SPR) using Biacore 3000 (GE Healthcare Sciences).
B1 showed a Kd of 852 nM, a koff of 0.27 s⁻¹ and a kon of 317000 M⁻¹ s⁻¹.

The molecule B2 yielded a Kd of 47.4 nM, a koff of 0.00711 s⁻¹ and a kon of 150000 M⁻¹ s⁻¹.

In turn, B3 gave an equilibrium dissociation constant (Kd) of 1070 nM, an off-rate (koff) of 0.37 s⁻¹ and a kon of 345000 M⁻¹ s⁻¹.

As for B4, the Kd came out at 36.3 nM, the koff amounted to 0.0138 s⁻¹ and the kon turned out to be 380000 M⁻¹ s⁻¹.

For B5, the Kd is 659 nM, the koff amounted to 0.0609 s⁻¹ and the on-rate (kon) amounted to 92400 M⁻¹ s⁻¹.

The molecule B6 displayed a Kd of 100 nM, a koff of 0.00876 s⁻¹ and a kon of 87600 M⁻¹ s⁻¹.

The molecule B7 gave a Kd of 339 nM, an off-rate constant (koff) of 0.1 s⁻¹ and a kon of 295000 M⁻¹ s⁻¹.

B8 gave a Kd of 11.8 nM, a koff of 0.00296 s⁻¹ and a kon of 250000 M⁻¹ s⁻¹.

B9: the affinity, expressed as Kd, was 156 nM; the koff was 0.0579 s⁻¹; the kon came to 370000 M⁻¹ s⁻¹.

With B10, the affinity, expressed as Kd, was 84.2 nM; the off-rate (koff) turned out to be 0.00831 s⁻¹; the kon turned out to be 98700 M⁻¹ s⁻¹.

The molecule B11 showed a Kd of 550 nM, a koff of 0.153 s⁻¹ and an association rate constant (kon) of 278000 M⁻¹ s⁻¹.

B12 had a Kd of 549 nM, an off-rate (koff) of 0.118 s⁻¹ and a kon of 215000 M⁻¹ s⁻¹.

For the molecule B13, the Kd was 15.7 nM, the koff is 0.00303 s⁻¹ and the kon was 193000 M⁻¹ s⁻¹.

Regarding B14, the Kd is 364 nM, the koff was found to be 0.139 s⁻¹ and the kon was determined as 382000 M⁻¹ s⁻¹.

In the case of B15, the Kd was 1270 nM, the koff came to 0.145 s⁻¹ and the kon was determined as 114000 M⁻¹ s⁻¹.

For B16, the affinity, expressed as Kd, was 78.8 nM; the koff was determined as 0.00395 s⁻¹; the kon was 50100 M⁻¹ s⁻¹.

Regarding B17, binding was put at a Kd of 177 nM, the koff is 0.0719 s⁻¹ and the kon was determined as 407000 M⁻¹ s⁻¹.

In the case of B18, the Kd is 35 nM, the off-rate (koff) stood at 0.00331 s⁻¹ and the kon amounted to 94600 M⁻¹ s⁻¹.

Molecule B19 yielded a Kd of 58.8 nM, a koff of 0.00227 s⁻¹ and a kon of 38600 M⁻¹ s⁻¹.

B20 displayed a Kd of 699 nM, a koff of 0.431 s⁻¹ and a kon of 617000 M⁻¹ s⁻¹.

B21 had a Kd of 1060 nM, a koff of 0.383 s⁻¹ and an association rate constant (kon) of 361000 M⁻¹ s⁻¹.

For B22, the Kd was 1020 nM, the koff turned out to be 0.261 s⁻¹ and the kon is 256000 M⁻¹ s⁻¹.

B23 had a Kd of 141 nM, a koff of 0.00995 s⁻¹ and a kon of 70400 M⁻¹ s⁻¹.

In turn, B24 yielded a Kd of 1370 nM, an off-rate constant (koff) of 0.0949 s⁻¹ and a kon of 69400 M⁻¹ s⁻¹.

With B25, the dissociation constant Kd was 1250 nM, the koff was 0.421 s⁻¹ and the kon was 336000 M⁻¹ s⁻¹.

B26 came in with a Kd of 1050 nM, a dissociation rate constant (koff) of 0.297 s⁻¹ and a kon of 282000 M⁻¹ s⁻¹.

Turning to B27, the Kd was 84.3 nM, the koff stood at 0.00752 s⁻¹ and the kon was 89200 M⁻¹ s⁻¹.

For B28, binding was put at a Kd of 2610 nM, the koff came out at 0.2 s⁻¹ and the kon worked out at 76700 M⁻¹ s⁻¹.

With B29, binding was characterised by a dissociation constant (Kd) of 59.4 nM, the koff was determined as 0.0215 s⁻¹ and the kon is 362000 M⁻¹ s⁻¹.
